Results published in the DeepSol protein solubility set.

assay: soluble on expression in E. coli; label from the status in PepcDB or PDB records

Soluble on expression in E. coli, not soluble:
MGSDKIHHHHHHMERPTGVYFQTMTMKQIRERLKQCDLIIIPVGSTENHGPNAPTGEDTFLVTRMAEQVALKTGCTVAEPIWYGYHPYHHIGMPGTVPVKDEAFIDYLVSVIAGFWNTGFRKQILLNGHGQEFVIPIAIHKFAKIFQVPAIIINLNWYHAIQDKFKTKEEGGPYETPFIHADEVETSWSLALFPEFMHQEWAVDTEPKGFLPEGHIDKAGNLLHRPIAWYGHVGGGPIEVVAYPEGVVGKATLASAEKAKEGVEALLDYLEKLVRDIMERFPAGKLPPAEMLSQRPKEELEALTKEPLTEGWRNLYTAGNLWG
MGSDKIHHHHHHMETITKKANLSLLELPSGGEESLFCRLYSPALAGPAPLIVLFHGFPGKQLNMDWAVQLQNLSFHVLVTSYRGTIGSPGAFRFRHVLEDATAIMQHVVSPEFTQAHDISADQISIVGHSMGGFAGLHAFIDVPDIAHYIGISPFNFGLIGQLVLDYPEHEEALQGVLSRGAQFLSHTDGDILLDELKRHHATWNLLSLKEQLGTRSALLVTSERDETSIKSLHHDLLQDASAFEQIIVDSDHNYIENREDAFRAWTTWLRRR
MGSDKIHHHHHHMETSEILKKVRQIEIKTRGLSNNIFAGQYHSAFKGRGMSFSEVREYQFGDDIRDIDWNVTARFNKPYVKVFEEERELTVMLMVDVSGSLEFGTVKQLKKDMVTEIAATLAFSAIQNNDKIGVIFFSDRIEKFIPPKKGRKHILYIIRELIDFQPESRRTNIRLALEYLTNVMKRRCTAFILSDFIDQDNFKNALTIANRKHDVVALQVYDRRVSDLPPVGLMRIKDAETGHEQWIDTSSKAVRRAHRDWWINKQTELNDTFTKSNVDSVSVRTDQDYVKALLNLFAKRN
MGSDKIHHHHHHMEVSEFCLEGRFINFVIKDGYKLKGLMLGTHEGEFYIKLAKQLRAAFDLRLPPGTWLQVVGYKKHDLKDGTITLKAERVMAARSEMGRVQTTTPVQEPPSIHNVKVKPAKAKATILVCQKSDCMKRGGKAVCQALEAALSDRGLEDQVTIKGTGCMKNCKAGPNLVMPDKTRHSRIQAAQVPRLMDKHFGDKSLEAQPENLREVAITNGKLC
MGSDKIHHHHHHMFAGAWKNYRNILCVRPDNMGDVLMSQPAMRALKESVPGRKITLLTSTAGACIAPFIPEVDETIPFDVPWVKTTETNGAQRLLALAGELLALQLDAAVIFTVYSQNPLPAGMLCYLAGIKAVLGYCRENPYQLINQWVPDREPLDYVVHEVERQLRLVEMAGAKTSDTRLLLKIPEETRKEATDRVWEILNVAGIRAGMGWLVLHAGVSEEKRLYPARDYITACQSLIRQGYKILLTGSGSERDYVDQIARQLSDAAINVAGELSIAELIVLVEAAPVLISNNTGPVHIATAVGTPVVVLYAMTNPQHTPWQVPSKVLYFEVLPELRTKNQLLQSFPGSSTPRASPEAIVAAVGELVSPRRKHGSFIPSPLRNPVPTCNSLPDTALAACFTPHNEYGMCPPIRYGEDV
MGSDKIHHHHHHMFAPFAGETSRGEADMSGDLDQATMDRLFAKARTYSKFTKAPVSDDLLRQAWDLARMGPTSVNCQPMRVVFVRSSAAKERLKPALAPGNLDKTMAAPVTAIIAHDMEFYEQLPKLFPHADARAWFVGNEAMIQSTAFRNGTLQGAYFILALRAIGLDCGPMSGFDNAKLDEAFFKGTTLRSNFLVNIGHGDAAGLYPRGPRLDFDEACRVE
MGSDKIHHHHHHMFDDKMSGNAMNAEIELKLFFLPIYQESLINKLDSLDNAVPQGKRRLANGYFDTPDLQLRQWDMGLRVRGYDAHREQTIKTAGQVVGGIHSRPEYNVTIQADSPDLSLFPASIWPADADLAATQAQLTCIFHTDFYRRSWHVQIDNSVVEVALDIGEITANGQQEALCELEFELLSGDTEALLKLAMQVASVVPVRLGKASKAQRGYRLAGKAKPLDLTALEFLPLAEPRDSSTQDLTANCQILLETALERWQLLESMIAEESKPEACVALWWRMRACIRLLRMTLSQFELLNVTLSSRFMSIEKQLDFIEQAQALTALLGSQRGLFAKLGQHAQVKARLMAQLSEIHLTERLLSLWQQTEYGQLQLAIVEILLKVSAGEVDISNQPSLRQHADRAQQASWMAIVEVMPLNTVMTSANYLQVAAVLDESILVGHAYGSLYEAKSRDAFRAPWQDLVLGIKTLACYRAVQDASRELDIDLNEWLEDKQQSLLFAMESTRRNAMQQQAYW
MGSDKIHHHHHHMFEHRFKDLHHTYRAIREVESEHHNIANIIKYVHKNNRVRQPSVGSHIRLRKKWEVEKSTLHARLSWDLERMQVWQLEHLSKLVDFAYNYVPFYHALYHEAGFRTGDIVTWSDFEKLPIVDKKMLVDNRSALCASIGFAPDNHHVARTSGSSGINFTIVQDDTSVDTRVVLNLRQTEMMVGHALSPDDWRYGIYLASERFTSLAGGYPVITVGQDCPAVDVFEHIQKIKPKILYAFPSYLKRLQVCAGDLTEWGVECICTNSEPSTQEERQVFARHFGVPVLDEYSSEEFSLIATECRYGRYHIVEDNLKAEVCNIDPEGWGTLVGTSFANTYMPFIRYSQGDIVKLDARQILCECGTHFRYLDTFHGRADQFLESKNNGKIPPDKLMGLYDSTLILETSGVKEFQIVQTHLDKIEIRIVLMDKEGAYNYALMSNFVSGIKQLFSGDPLTVSVHVLESIPAAKSYKRRLIVNMINS
MGSDKIHHHHHHMFENEILFDNGQHKFMFLGWEEKEEEIVQTNQYLILDGNEGILLDPGGAHVFPRVMSNVAEVVDLSSIRHIFYTHQDPDVTSGILLWLSICENAKIYISSLWVRFLPHFGIYDQKRIVPISDKGTKIKLLSGNELEILPAHFLHSTGNFVLYDPVAKILFSGDIGAAVFEKGKRYRYVDDFERHLPLMEAFHKRYMSSNAACKKWVDMVSKKKIDMIAPQHGAVFRGESVKKFLEWFRNLKCGVDLIDNLYSL
MGSDKIHHHHHHMFKDEKTPDEYAEEARSDIAAGNYAEAIEKIDKAIDKEPRNPSLHLIRADALYRQGNYSSAIEELNFTEHMDKNNPELFSLKSICYGSMGDFKRSKEEADKAIKADQSYPFAYYNRAAALRGLGDVDGAEKDFRKYIEMQPSDPDPHYDLAEIYFEKKDYKKAMEEVKAVLRNDKSNEKAYDLKLQIHLATNDGEGYFKALLEAFKNTENFKYIGTLTDGLIGIGSYDTAEDILKQFIKVYEKEPYLYDLLARTYDQEGKAKEADETYNTLLRLNNSRESHIYWFDYLLDSGRYDDLLSEIEKSGFKDEEILEIEYIAQDASGKHEEALKTAGELVKMDQTPYSRSLYATQLRKLGKLEDALTYLGSGDQDSDEVQFEKFNILLEMGNHSLAMESLKNSITASDDDEERLGHLITGISSAISKADFNTVNNFLDGLKMPEEEENIAVYALKGIVSGIFESYSKGKDMLIGLDEDRDNVCDFASYLANLMQGKASEFLNKFIEENCKKPEE
MGSDKIHHHHHHMFRHFRSRFGTPAWAGVNEDDFLLVRSWFGHGRHHGRDRDKHFGNEMFGRGWGDEHRTRRGDIKFILLELLSEHPSHGYDLIKEMETRYGGFRRLSPGSVYPTLQLLEEGGYLKSAQEGGKRIYTITDEGRKLLAERAQQETSDTPWDTVKSFVTGKPQEFIELRNAATELAAVVVQVARSGNVERINRVRELLEQVKREIYTILAEK
MGSDKIHHHHHHMFRPKLLFTSLAALALGACSPQDPQAVTSAAIANQVILPTYSRWVEADRTLAASALAYCEGKESLDKARADFLNAQKAWAELQPLLVGPLAEGNRAWQVQFWPDKKNLVGRQVEQLVNGDKPVDAEALGKSSVVVRGLSAYEYILFDSKPDIATAEQKARYCPLLVAIGAHQKALAEEILKGWNSTDGMLSQMTKFPNQRYADSHEAIADLLRAQVTALDTLKKKLGAPMGRQSKGIPQPLQAEAWRSHNSMNSLQASLKAAEAVWVGVDNQGLRGLLPSDQKALADKIDAAYATSLKLLADNQKTLGELLADDAGQQTLNQIYDSLNVVHRLHEGDLAKALNIQLGFNANDGD
MGSDKIHHHHHHMFSDFKKDFCLANPGYLLSHSVGRPLKSTEQVFKEAFFAPWQDSGREPWGQWLSVIDDFTFALSKLFNGHQKDFCPQVNLSSALAKILMSLARLNREHAVVLMSEIDFPSMGFAIKKALPASCEVRFIPKTLDITDANVWDAHMGSDIDLVFVSHAYSNTGQQAPLANILAMARQYGCLSVVDVAQSAGIIPLNLAQLQPDFLIGSSVKWLCSGPGAAYLWVNPSIIDSCQPKDVGWFSHENPFEFNIHDFRYHNSALRFWGGTPSIAPYAIAAHSIHYFADIGVEQLRKGNQLLIDIVAEALDQEFVSPREIEKRSGTLVLQFGEQQGQIMAALAKANISVDARSMGIRISPHIYNDKADIQLLLSVIKAHR
MGSDKIHHHHHHMFSSQKLKERRKKLGLSQAQTADKLGISRPSYFNWEIGKTKPNQKNLDKLAHLLKVDSAYFLSQHDIVEIYTRLNESNKTKTLKYSQYLLEQQDKERNLMKNKRYPYRVYEKLSAGTGYSYFGDGNFDTVFYDEEIDHDFASWIFGDSMEPIFLNGEVALIKQTGFDYDGAIYAIDWDGQTYIKKVYREETGLRLVSLNKKYADKFAPYDENPRIIGLIVGNFIPLEG
MGSDKIHHHHHHMFVGMDFGTTNSAVALAGADGSVEVLNFAAATGAASTLRSVLAFENARRDAQRRILPLAGHEAIEAYLHGDGDCRFLQSFKSYLTSRSFTSTAIYGAPYSLEELVALIIAQLRRTAEAAGAKVERVVAGRPVRFVAEGGEEEDAYATGRLVEAFAKAGITDVVFEYEPIAAAYYYESTLTRDQTVLVADFGGGTSDFCLIRLGPGRAGLARPEDAIIGTAGVGIAGDAFDRRIVEHGLSGHFGKYTTYVSDGKVLPMPAWVYAKLERWHHVAFLNTPSTMRLLRDLLRQVEHPDQVEQLLALIEHNLGYHLYRAVEQAKRDLSSADETVLRFDHDPVVVERRVTRAEFESWIGKELSAIESCVDGLLDGTGTALAQVDRVFLTGGSSLVPAVRAIFANRFGEDRLSAGGEFISVATGLAQRAREMG
MGSDKIHHHHHHMFVMLAMANVTTSAPRAVAPAYDPRLVRAAVAMNENDLPTAEPLLRALLKDDPFDVRAIRLFAELAGRIGRYQDAENLLRRAIELAPQFTAARANLALVLYRTNRAPEALEELAKVTADDPENVGHANLQAAAYGRIGEFDEALALYEQVLKQAAAQPRVWMSYGHMLKTVGRQADGVAAYRRAIELLPTLGEAWWSLANLKTVRFDDADIAAMEAALRVPDLAPEDQWHLDFALGKAFEDRGEAERSFRHYAAGNALRKKRMPYQAEEITAQVDRAVAAFTPATVAGLSGKGCEAGDPIFVLGMPRAGSTLVEQILASHSMVEGTSELADIGYLARTVEGYPAGLSSLQGNDLRALGEQYLARTRIQRHTDRPLFVDKMPNNWIHVPFIRAILPNAKIVDARRHPLSCCFSNFKQHFARGQGFSYSLEDMGRYYRDYVRAMAHFDKVIPGAVHRVIYERMVEDTEAEVRALLAYCGLAFEDNCLAFHRTERAVRTASSEQVRQPIFRDGTDAWKAFEPWLGELKVALGAVQDFYPEAPPFD
